Values of other authors, collected in PMC5596636 (ACS chemical neuroscience, 2016).

Columns and labels:
Settings in all cases: cloned mouse receptors; cited from earlier work
mMC1R = mMC1R (Mus musculus, UniProt Q01727)
mMC3R = mMC3R (Mus musculus, UniProt P33033)
mMC5R = mMC5R (Mus musculus, UniProt P41149)
mMC4R = mMC4R (Mus musculus, UniProt P56450)
Chain of mMC4R (P56450 whole entry): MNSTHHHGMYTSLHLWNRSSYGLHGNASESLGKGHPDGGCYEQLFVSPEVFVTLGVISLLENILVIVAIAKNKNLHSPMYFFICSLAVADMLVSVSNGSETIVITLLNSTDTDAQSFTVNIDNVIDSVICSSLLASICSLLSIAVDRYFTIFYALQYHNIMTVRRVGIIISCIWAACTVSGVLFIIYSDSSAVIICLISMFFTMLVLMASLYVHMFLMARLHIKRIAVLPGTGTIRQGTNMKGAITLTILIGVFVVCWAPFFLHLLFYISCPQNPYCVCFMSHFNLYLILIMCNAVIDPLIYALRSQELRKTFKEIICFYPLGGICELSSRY

Chain of mMC3R (P33033 whole entry): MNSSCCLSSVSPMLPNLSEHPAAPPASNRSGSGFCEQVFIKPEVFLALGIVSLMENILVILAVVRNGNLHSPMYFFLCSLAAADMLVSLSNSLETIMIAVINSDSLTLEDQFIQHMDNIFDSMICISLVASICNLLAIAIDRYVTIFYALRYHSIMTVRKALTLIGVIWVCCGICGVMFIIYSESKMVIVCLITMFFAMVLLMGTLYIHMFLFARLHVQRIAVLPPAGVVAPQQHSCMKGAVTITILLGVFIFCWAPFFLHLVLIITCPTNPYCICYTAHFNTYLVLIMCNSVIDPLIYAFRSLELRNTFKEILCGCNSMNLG
Chain of mMC5R (P41149 whole entry): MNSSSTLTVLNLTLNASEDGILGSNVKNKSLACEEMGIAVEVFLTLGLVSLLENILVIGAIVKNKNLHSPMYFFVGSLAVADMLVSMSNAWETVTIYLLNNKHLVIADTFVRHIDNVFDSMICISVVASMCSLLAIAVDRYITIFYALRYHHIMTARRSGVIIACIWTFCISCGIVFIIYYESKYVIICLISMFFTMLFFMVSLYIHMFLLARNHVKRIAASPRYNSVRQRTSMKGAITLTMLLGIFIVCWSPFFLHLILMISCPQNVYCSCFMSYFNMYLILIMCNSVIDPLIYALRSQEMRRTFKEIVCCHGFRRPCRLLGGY
Chain of mMC1R (Q01727 whole entry): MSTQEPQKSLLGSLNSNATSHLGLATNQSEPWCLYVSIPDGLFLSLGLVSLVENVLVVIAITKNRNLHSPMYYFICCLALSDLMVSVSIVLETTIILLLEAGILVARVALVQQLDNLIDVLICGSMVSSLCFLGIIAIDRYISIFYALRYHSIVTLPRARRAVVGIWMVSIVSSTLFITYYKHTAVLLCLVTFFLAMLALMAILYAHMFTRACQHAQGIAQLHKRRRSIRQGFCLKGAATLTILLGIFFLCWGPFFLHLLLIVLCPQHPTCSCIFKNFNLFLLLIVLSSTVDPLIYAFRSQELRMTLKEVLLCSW

For Ac-His-Phe-Arg-Trp-NH2, the “agonist potency at the mMC1R” value (mMC1R) is given as “micromolar potency”, the “agonist potency at the mMC3R” value (mMC3R) is given as “micromolar potency” and the “agonist potency at the mMC5R” value (mMC5R) is given as “sub-micromolar potency”. The “agonist potency at the mMC4R” value (mMC4R) was “micromolar potency”.
